These results are taken from US6512097.

Read-outs that look alike come from different tables or passages of the source.

The target in assay [1] is T1, c-erbB-2 expressed on cells (SK-OV-3, SK-BR-3) (UniProt P04626 23-1255, limits assumed).
T1 construct: whole, on cells; also called native c-erbB-2 expressed on cells; c-erbB-2 on SK-OV-3 cells
Briefly: Scatchard after radioiodination, SK-OV cells. The protocol: (§1) All assays were performed in triplicate. Briefly, […] of radioiodinated sFv was added to 5×10^6 SK-OV cells in the presence of increasing concentrations of unlabeled sFv from the same preparation. After a 30 minute incubation at 20° C., the samples were washed with PBS at 4° C. and centrifuged at 500 g. The amount of labeled sFv bound to the cells was determined by counting the pellets in a gamma counter and the K_a, and K_d were calculated using the EBDA program (V 2.0, G. A. McPherson, 1983). The K_d of all the other isolated sFv were determined using surface plasmon resonance in a BIAcore (Pharmacia). In a BIAcore flow cell, approximately 1400 resonance units (RU) of c-erbB-2 ECD (25 μg/ml in 10 mM sodium acetate, pH 4.5) was coupled to a CM5 sensor chip (Johnsson et al. (1991), supra). Association and dissociation-rates were measured under continuous flow of […] using a concentration range from 50 to 800 nM. Rate constant $kon$ was determined from a plot of (1(dR/dt))/t vs concentration (Karlsson et al. (1991), supra). Rate constant $Hoff$ was determined from the dissociation part of the sensorgram at the highest concentration of sFv analyzed.
(§2) These clones were purified by IMAC after subcloning into PUC119SFI/NotmycHis, and the affinity determined by Scatchard analysis.

Assay [2] deals with T2, c-erbB-2 ECD with a Ser-Gly-His6 C-terminal fusion (UniProt P04626 23-652).
T2 construct: extracellular domain; Expressed from CHO cells, IMAC purified; coupled to a CM5 chip, coated on plates, or biotinylated with NHS-LC-biotin; also called c-erbB-2 extracellular domain; biotinylated c-erbB-2 ECD
Briefly: competition ELISA, sFv preincubated with soluble c-erbB-2 (0 to 100 nM). As to the method: Meth. 77: 305–319). Immunolon 4 ELISA plates (Dynatech) were coated with avidin in PBS (10 μg/ml) at 4° C. overnight. Biotinylated c-erbB-2 ECD (5 μg/ml) was added to the wells and incubated for 30 min at room temperature. Bacterial supernatant containing sFv was incubated with varying concentrations of c-erbB-2 (0 to 100 nM) at 4° C. for 1 h. The amount of free sFv was then determined by transferring 100 μl of each mixture into the wells of the previously prepared ELISA plate and incubating for 1 h at 4° C. Binding of sFv was detected as under ELISA screening and the IC50 calculated as described (Friguet et al. (1985), supra)
as §2

In assay [3] the target is T2, c-erbB-2 ECD with a Ser-Gly-His6 …. Briefly: SPR BIAcore. (In general: Surface plasmon resonance follows binding to a sensor surface in real time, without labels.)
The target is the same in assay [4]. Briefly: SPR BIAcore. As to the method:
as §1
The source holds these as a separate data set.

Assay [5] has the same target. Briefly: SPR BIAcore. The source holds these as a separate data set.
Assay [6] shares this target. Briefly: SPR BIAcore. As to the method:
as §1
Dashes indicate sequence identity. Mutations arising from PCR error and located outside V_H CDR3 are listed under the heading other mutations. F = frequency of isolated scFv. *$koff$ determined from unpurified scFv samples. Underline indicates mutated residue.
This is another data set of the same source.

For assay [7] the target is unchanged. Briefly: SPR BIAcore. The source holds these as a separate data set.

B1: C6VLD (scFv)
scFv: QVQLLQSGAELKKPGESLKISCKGSGYSFTSYWIAWVRQMPGKGLEYMGLIYPGDSDTKYSPSFQGQVTISVDKSVSTAYLQWSSLKPSDSAVYFCARHDVGYCSSSNCAKWPEYFQHWGQGTLVTVSSGGGGSGGGGSGGGGSQSVLTQPPSVSAAPGQKVTISCSGTNSNIGNNYVSWYQQLPGTAPKLLIYTNDQRPSGVPDRFSGSKSGTSASLAISGLQSEDEADYYCAAWDDSLNGWMFGGGTKLTVLG
modifications: Radioiodinated for the Scatchard assay; the label is not carried in the letters.
notes: Light chain shuffled; mixture of monomer and dimer by gel filtration
As to B1, in assay [1], binding was put at a Kd of 26 nM. Besides, in assay [2], the IC50 – broadly, the midpoint of a concentration-inhibition curve – was 5.8 nM.

B2: C6H1 (scFv)
chain: QVQLVESGAEVKKPRESLKISCKGSGYSFTSYEIAWVRQMPGKGLEYMGLIYPGDSDTKYSPSFQGQVTISVDKSVSTAYLQWSSLKPSDTAMYYCARHDVGYCSSSNCAKWPEYFQHWGQGTLVTVSSGGGGSGGGGSGGGGSQSVLTQPPSVSAAPGQKVTISCSGSSSNIGNNYVSWYQQLPGTAPKLLIYGHTNRPAGVPDRFSGSKSGTSASLAISGFRSEDEADYYCAAWDDSLSGWVFGGGTKLTVLG
Regarding B2, in assay [3], the “fold higher affinity than C6.5” value stood at 3 fold. In assay [4], the Kd (usually a measure of binding affinity in units of concentration) was 5.9 nM.

B3: C6H2 (scFv)
scFv: QVQLVQSGAEVKKPRESLKISCKGSGYSFTSYWIAWVRQMPGKGLEYMGLIYPADSKTIYSPSFQGQVTISVDKSVSTAYLQWSSLKTSDTAMYYCARHDVGYCSSSNCAKWPEYFQHWGQGTLVTVSSGGGGSGGGGSGGGGSQSVLTQPPSVSAAPGQKVTISCSGSSSNIGNNYVSWYQQLPGTAPKLLIYGHTNRPAGVPDRFSGSKSGTSASLAISGFRSEDEADYYCAAWDDSLSGWVFGGGTKLTVLG
notes: Heavy chain shuffled
Regarding B3, in assay [3], the “fold higher affinity than C6.5” value was 5 fold. Moreover, in assay [4], the Kd was 3.1 nM.

B4: C6H1L1 (scFv)
chain: QVQLVESGAEVKKPRESLKISCKGSGYSFTSYEIAWVRQMPGKGLEYMGLIYPGDSDTKYSPSFQGQVTISVDKSVSTAYLQWSSLKPSDTAMYYCARHDVGYCSSSNCAKWPEYFQHWGQGTLVTVSSGGGGSGGGGSGGGGSQSVLTQPPSVSGAPGQWVTISCSGSSSNIGNNYVSWYQQLPGTAPKLLIYDNNKRPSGVPDRFSGSQSGTSASLAISGLRSEDEADYYCAAWDDSLSGWVFGGGTKLTVLG
B4 showed a Kd in assay [4] of 15 nM.

B5: C6H2L1 (scFv)
scFv: QVQLVQSGAEVKKPRESLKISCKGSGYSFTSYWIAWVRQMPGKGLEYMGLIYPADSKTIYSPSFQGQVTISVDKSVSTAYLQWSSLKTSDTAMYYCARHDVGYCSSSNCAKWPEYFQHWGQGTLVTVSSGGGGSGGGGSGGGGSQSVLTQPPSVSGAPGQWVTISCSGSSSNIGNNYVSWYQQLPGTAPKLLIYDNNKRPSGVPDRFSGSQSGTSASLAISGLRSEDEADYYCAAWDDSLSGWVFGGGTKLTVLG
Consider B5, for which binding in assay [4] was put at a Kd of 6 nM.

B6: C6ML3-9 (scFv)
scFv: QVQLLQSGAELKKPGESLKISCKGSGYSFTSYWIAWVRQMPGKGLEYMGLIYPGDSDTKYSPSFQGQVTISVDKSVSTAYLQWSSLKPSDSAVYFCARHDVGYCSSSNCAKWPEYFQHWGQGTLVTVSSGGGGSGGGGSGGGGSQSVLTQPPSVSAAPGQKVTISCSGSSSNIGNNYVSWYQQLPGTAPKLLIYGHTNRPAGVPDRFSGSKSGTSASLAISGFRSEDEADYYCASWDYTLSGWVFGGGTKLTVLG
notes: template (wt) of the VH CDR3 libraries; also called C6ML3-9 (wt); C6ML-9
Take B6: in assay [3], the “t1/2 calculated from koff” value is 0.217 h. The Kd in assay [5], in assay [6] and in assay [7] was 1 nM each time. The koff (commonly a measure of how fast the partners let go of each other) in assay [5] was 0.00092 s⁻¹; in assay [6], 0.00076 s⁻¹; in assay [7], 0.00019 s⁻¹.

B7: C6MH3-B47 (scFv)
scFv: QVQLLQSGAELKKPGESLKISCKGSGYSFTSYWIAWVRQMPGKGLEYMGLIYPGDSDTKYSPSFQGQVTISVDKSVSTAYLQWSSLKPSDSAVYFCARHDVGYCTDRSCAKWPEYFQHWGQGTLVTVSSGGGGSGGGGSGGGGSQSVLTQPPSVSAAPGQKVTISCSGSSSNIGNNYVSWYQQLPGTAPKLLIYGHTNRPAGVPDRFSGSKSGTSASLAISGFRSEDEADYYCASWDYTLSGWVFGGGTKLTVLG
notes: C6ML3-9 sFv, VH CDR3 library B mutant
As for B7, in assay [3], the “fold lower Kd than C6ML3-9” value came to 9 fold, the “fold lower Kd than C6.5” value worked out at 145 fold, the “fold lower koff than C6ML3-9” value was determined as 10 fold and the “fold lower koff than C6.5” value was determined as 84 fold. In addition, in assay [6], the Kd came to 0.11 nM and the dissociation rate constant (koff) is 7.5e-05 s⁻¹.

B8: C6MH3-D2 (scFv)
scFv: QVQLLQSGAELKKPGESLKISCKGSGYSFTSYWIAWVRQMPGKGLEYMGLIYPGDSDTKYSPSFQGQVTISVDKSVSTAYLQWSSLKPSDSAVYFCARHDVGYCSSSNCAKWPEWLGVWGQGTLVTVSSGGGGSGGGGSGGGGSQSVLTQPPSVSAAPGQKVTISCSGSSSNIGNNYVSWYQQLPGTAPKLLIYGHTNRPAGVPDRFSGSKSGTSASLAISGFRSEDEADYYCASWDYTLSGWVFGGGTKLTVLG
notes: C6ML3-9 sFv, VH CDR3 library D mutant
Consider B8, for which the “fold change of Kd against wt C6ML3-9” value in assay [3] came to 7 fold. In assay [6], this molecule yielded a Kd of 0.16 nM and a koff of 0.0002 s⁻¹.

B9: C6MH3-B1 (scFv)
scFv: QVQLLQSGAELKKPGESLKISCKGSGYSFTSYWIAWVRQMPGKGLEYMGLIYPGDSDTKYSPSFQGQVTISVDKSVSTAYLQWSSLKPSDSAVYFCARHDVGYCTDRTCAKWPEYFQHWGQGTLVTVSSGGGGSGGGGSGGGGSQSVLTQPPSVSAAPGQKVTISCSGSSSNIGNNYVSWYQQLPGTAPKLLIYGHTNRPAGVPDRFSGSKSGTSASLAISGFRSEDEADYYCASWDYTLSGWVFGGGTKLTVLG
notes: C6ML3-9 sFv, VH CDR3 library B mutant; also called CH3-B1
With B9, in assay [3], the Kd was found to be 0.12 nM, the off-rate (koff) was determined as 6e-05 s⁻¹ and the “t1/2 calculated from koff” value was 2.25 h. In assay [6], this molecule gave a Kd of 0.16 nM and a koff of 6.7e-05 s⁻¹.

B10: C6ML3-29 (scFv)
scFv: QVQLLQSGAELKKPGESLKISCKGSGYSFTSYWIAWVRQMPGKGLEYMGLIYPGDSDTKYSPSFQGQVTISVDKSVSTAYLQWSSLKPSDSAVYFCARHDVGYCSSSNCAKWPEYFQHWGQGTLVTVSSGGGGSGGGGSGGGGSQSVLTQPPSVSAAPGQKVTISCSGSSSNIGNNYVSWYQQLPGTAPKLLIYGHTNRPAGVPDRFSGSKSGTSASLAISGFRSEDEADYYCAAWDGTLWGWVFGGGTKLTVLG
Turning to B10, the Kd in assay [5] was 2.7 nM; in assay [7], 1.7 nM. Moreover, the koff in assay [5] and in assay [7] was 0.0022 s⁻¹ throughout.

B11: C6MH3-C4 (scFv)
scFv: QVQLLQSGAELKKPGESLKISCKGSGYSFTSYWIAWVRQMPGKGLEYMGLIYPGDSDTKYSPSFQGQVTISVDKSVSTAYLQWSSLKPSDSAVYFCARHDVGYCSSSNCAVWPEYFQHWGQGTLVTVSSGGGGSGGGGSGGGGSQSVLTQPPSVSAAPGQKVTISCSGSSSNIGNNYVSWYQQLPGTAPKLLIYGHTNRPAGVPDRFSGSKSGTSASLAISGFRSEDEADYYCASWDYTLSGWVFGGGTKLTVLG
notes: C6ML3-9 sFv, VH CDR3 library C mutant; also called mutant sFv K100gV
Turning to B11, in assay [3], the “fold lower Kd than wt” value is 2.7 fold and the “fold lower koff than C6ML3-9” value was 3.8 fold. Further, in assay [6], the Kd stood at 0.37 nM and the koff turned out to be 0.0002 s⁻¹.

B12: C6VLB (scFv)
scFv: QVQLLQSGAELKKPGESLKISCKGSGYSFTSYWIAWVRQMPGKGLEYMGLIYPGDSDTKYSPSFQGQVTISVDKSVSTAYLQWSSLKPSDSAVYFCARHDVGYCSSSNCAKWPEYFQHWGQGTLVTVSSGGGGSGGGGSGGGGSQSVLTQPPSVSAAPGQKVTISCSGSSSNIGNNYVSWYQQLPGTAPKLLIYSDNQRPSGVPDRFSGSKSGTSASLAISGLRSEDEADYYCAAWDDSLSGHWVFGGGTKLTVLG
notes: as for B1
B12 returned a Kd in assay [1] of 30 nM. In assay [2], this molecule registered a half-inhibitory concentration (IC50) of 10 nM.
